In FireProtDB (doi:10.1074/jbc.m704364200):

B1: Prolactin, P01236 (parent)
chain: MNIKGSPWKGSLLLLLVSNLLLCQSVAPLPICPGGAARCQVTLRDLFDRAVVLSHYIHNLSSEMFSEFDKRYTHGRGFITKAINSCHTSSLATPEDKEQAQQMNQKDFLSLIVSILRSWNEPLYHLVTEVRGMQEAPEAILSKAVEIEEQTKRLLEGMELIVSQVHPETKENEIYPVWSGLPSLQMADEESRLSAYYNLLHCLRRDSHKIDNYLKLLKCRIIHNNNC

Variants of: B1
Settings: Homo sapiens; pH 7.4; Thermal; CD; NaH2PO4 100mM; structure 1RW5; whole UniProt chain shown

In the case of G157P, the Tm is reported as 70.8 °C, the “change of melting temperature, mutant - wild type (higher = more stable)” value (“change of melting temperature, mutant” for short) is reported as -10.3 °C and the “unfolding enthalpy (calorimetric)” value is reported as 50.1 kcal/mol.

For G157V, the Tm was 101 °C and the “change of melting temperature, mutant” value was 19.7 °C.

For G157N, the Tm was 89.8 °C and the “change of melting temperature, mutant” value was 8.7 °C.

For G157F, the Tm was 93.8 °C and the “change of melting temperature, mutant” value was 12.7 °C.

For G157Y, the Tm was 96.8 °C and the “change of melting temperature, mutant” value was 15.7 °C.

For G157R, the Tm was 79 °C, the “change of melting temperature, mutant” value was -2.2 °C and the “unfolding enthalpy (calorimetric)” value was 55.9 kcal/mol.

For G157L, the Tm was 96.8 °C and the “change of melting temperature, mutant” value was 15.7 °C.

With G157D the Tm was 84.2 °C, the “change of melting temperature, mutant” value was 3.1 °C and the “unfolding enthalpy (calorimetric)” value was 58 kcal/mol.
